Experimental data from US20070224174A1.

Target: murine Axl receptor tyrosine kinase on precursor natural killer (pNK) cells (mouse) (UniProt Q00993)
Test: cell-based or functional assay

Sequence of UniProt Q00993 (Q00993 19-888): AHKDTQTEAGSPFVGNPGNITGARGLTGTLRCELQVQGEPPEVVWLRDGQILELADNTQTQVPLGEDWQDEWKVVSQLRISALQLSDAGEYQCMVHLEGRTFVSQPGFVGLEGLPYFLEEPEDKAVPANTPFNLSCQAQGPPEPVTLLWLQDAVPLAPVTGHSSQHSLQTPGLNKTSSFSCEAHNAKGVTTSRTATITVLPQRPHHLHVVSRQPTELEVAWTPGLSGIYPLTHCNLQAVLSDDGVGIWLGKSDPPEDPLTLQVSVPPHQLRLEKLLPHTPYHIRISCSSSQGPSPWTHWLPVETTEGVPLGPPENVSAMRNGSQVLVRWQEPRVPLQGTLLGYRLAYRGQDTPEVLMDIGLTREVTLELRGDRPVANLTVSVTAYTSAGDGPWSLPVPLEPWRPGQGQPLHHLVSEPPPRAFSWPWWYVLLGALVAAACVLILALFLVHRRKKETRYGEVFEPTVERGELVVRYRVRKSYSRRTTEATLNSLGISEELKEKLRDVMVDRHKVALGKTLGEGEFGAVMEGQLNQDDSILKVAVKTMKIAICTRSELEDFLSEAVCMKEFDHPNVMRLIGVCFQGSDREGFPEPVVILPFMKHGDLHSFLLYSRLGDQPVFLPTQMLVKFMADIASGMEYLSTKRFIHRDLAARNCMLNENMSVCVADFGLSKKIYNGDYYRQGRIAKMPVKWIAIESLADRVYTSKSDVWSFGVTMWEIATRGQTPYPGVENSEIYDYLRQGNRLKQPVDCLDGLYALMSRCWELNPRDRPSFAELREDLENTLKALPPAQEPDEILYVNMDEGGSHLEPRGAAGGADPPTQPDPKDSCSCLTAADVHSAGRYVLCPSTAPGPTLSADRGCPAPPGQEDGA

murine Gas6 protein secreted from the murine Gas6 transfectant (NIH3T3 transfected with pcDNA3.1-Gas6) (from UniProt Q61592 28-674) (ligand)
degree of differentiation of pNK cells into mNK cells (FACS), co-culture with murine Gas6 transfectant against control groups: 47%
